Laboratory results from the supplement of paper PMC7877785.
± gives the uncertainty stated by the source.

Experiment: self-splicing fitness, log relative to wild type (ln ratio); higher = more splicing; Tetrahymena group I intron in knt gene, E. coli kanamycin selection, DiMSum; sequences stand for … in CUCUCU…GGAGGGAAAAGUUAUCAGGCAUGCACCUGGUAGCUAGUCUUUAAACCAAUAGAUUGCAUCGGUUUAAAAGGCAAGACCGUCAAAUUGCGGGAAAGGGGUCAACAGCCGUUCAGUACCAAGUCUCAGGGGAAACUUUGAGAUGGCCUUGCAAAGGGUAUGGUAAUAAGCUGACGGACAUGGUCCUAACCACGCAGCCAAGUCCUAAGUCAACAGAUCUUCUGUUGAUAUGGAUGCAGUUCACAGACUAAAUGUCGGUCGGGGAAGAUGUAUUCUUCUCAUAAGAUAUAGUCGGACCUCUCCUUAAUGGGAGCUAGCGGAUGAAGUGAUGCAACACUGGAGCCGCUGGGAACUAAUUUGUAUGCGAAAGUAUAUUGAUUAGUUUUGGAGUACUCGUGGUCG
How it was run: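 A randomised library covering all eight P1ex-region intron nucleotides was built with the intron in the knt kanamycin-resistance gene on pET-22b(+) and held in E. coli BL21(DE3). Cells were grown overnight at 37°C or 30°C on LB agar, with or without 25 μg/mL kanamycin, plus 100 μg/mL carbenicillin, 50 μM IPTG and 0.2% rhamnose, and pooled colonies were amplicon-sequenced on an Illumina HiSeq 2500. DiMSum fitness is the error-weighted combination of wild-type-normalised replicate fold changes, kanamycin versus none.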

| Sequence | self-splicing fitness (ln) (30 °C) | self-splicing fitness (ln) (37 °C) |
| --- | --- | --- |
| UUACAGCAAUAUUACGCCUU | -2.35 ± 0.22 | -0.83 ± 0.17 |
| UUACAGCAAUAUUACGGAGA | -1.79 ± 0.1 | -1.11 ± 0.13 |
| UUACAGCAAUAUUACGGAGG | -2.31 ± 0.22 | -2.1 ± 0.36 |
| UUACAGCAAUAUUACGGGCC | -3.28 ± 0.19 | -3.55 ± 0.42 |
| UUACAGCAAUAUUACGGGGU | -4.73 ± 0.22 | -3.21 ± 0.17 |
| UUACAGCAAUAUUACGGGUG | -1.05 ± 0.061 | -0.414 ± 0.077 |
| UUACAGCAAUAUUACGGUGU | -4.36 ± 0.46 | -2.23 ± 0.21 |
| UUACAGCAAUAUUACGUAAG | -0.248 ± 0.068 | -0.257 ± 0.097 |
| UUACAGCAAUAUUACGUACA | -0.278 ± 0.087 | 0.137 ± 0.1 |
| UUACAGCAAUAUUACGUACU | -0.865 ± 0.1 | -0.831 ± 0.096 |
| UUACAGCAAUAUUACGUAGA | -1.01 ± 0.067 | -0.372 ± 0.081 |
| UUACAGCAAUAUUACGUCCA | -0.325 ± 0.096 | -0.181 ± 0.11 |
| UUACAGCAAUAUUACGUGGU | -3.33 ± 0.13 | -2.36 ± 0.13 |
| UUACAGCAAUAUUACGUGUC | -3.93 ± 0.17 | -3.21 ± 0.21 |
| UUACAGCAAUAUUACGUUCC | -3.34 ± 0.26 | -2.22 ± 0.46 |
| UUACAGCAAUAUUACGUUGG | -2.6 ± 0.12 | -1.69 ± 0.13 |
| UUACAGCAAUAUUACGUUGU | -2.98 ± 0.13 | -2.57 ± 0.16 |
| UUAGAGCAAUAUUACGAAAU | -3.77 ± 0.34 | -3.04 ± 0.47 |
| UUAGAGCAAUAUUACGACCC | -2.63 ± 0.49 | -1.74 ± 0.49 |
| UUAGAGCAAUAUUACGACUA | -1.13 ± 0.31 | -0.676 ± 0.32 |
| UUAGAGCAAUAUUACGAGUU |  | -2.05 ± 0.39 |
| UUAGAGCAAUAUUACGAUGA | 0.174 ± 0.1 | 0.371 ± 0.14 |
| UUAGAGCAAUAUUACGAUUA | -1.07 ± 0.11 | -0.181 ± 0.13 |
| UUAGAGCAAUAUUACGAUUC | -2.62 ± 0.25 | -2.44 ± 0.35 |
| UUAGAGCAAUAUUACGCAGU | -3.64 ± 0.32 | -3.17 ± 0.47 |

| Sequence | self-splicing fitness (ln) (30 °C) | self-splicing fitness (ln) (37 °C) |
| --- | --- | --- |
| UUAGAGCAAUAUUACGCCAG | -0.402 ± 0.15 | 0.228 ± 0.23 |
| UUAGAGCAAUAUUACGCCCA | -1.04 ± 0.19 | -0.676 ± 0.3 |
| UUAGAGCAAUAUUACGCUAA | -1.93 ± 0.24 | -0.588 ± 0.36 |
| UUAGAGCAAUAUUACGCUUU | -3.62 ± 0.37 | -2.02 ± 0.32 |
| UUAGAGCAAUAUUACGGAAU | -3.79 ± 0.29 | -2.81 ± 0.25 |
| UUAGAGCAAUAUUACGGCCG | -0.608 ± 0.15 | -0.234 ± 0.23 |
| UUAGAGCAAUAUUACGGCGU | -1.73 ± 0.14 | -1.12 ± 0.22 |
| UUAGAGCAAUAUUACGGCUA | -0.0336 ± 0.14 | 0.4 ± 0.17 |
| UUAGAGCAAUAUUACGGGCU | -2.53 ± 0.32 |  |
| UUAGAGCAAUAUUACGUAUC | -3.29 ± 0.48 | -1.22 ± 0.34 |
| UUAGAGCAAUAUUACGUAUU | -5.06 ± 0.45 | -2.91 ± 0.35 |
| UUAGAGCAAUAUUACGUCGU | -3.46 ± 0.4 | -1.26 ± 0.21 |
| UUAGAGCAAUAUUACGUCUG | -0.606 ± 0.11 | -0.672 ± 0.12 |
| UUAGAGCAAUAUUACGUGUG | -1.27 ± 0.09 | -1.11 ± 0.14 |
| UUAGAGCAAUAUUACGUUCA | -0.27 ± 0.14 | -0.536 ± 0.17 |
| UUAGAGCAAUAUUACGUUUC | -3.04 ± 0.2 |  |
| UUAUAGCAAUAUUACGAAAG | -3.47 ± 0.37 | -2.69 ± 0.38 |
| UUAUAGCAAUAUUACGAAGU | -3.61 ± 0.45 | -2.44 ± 0.28 |
| UUAUAGCAAUAUUACGACUC | -1.94 ± 0.19 | -1.94 ± 0.24 |
| UUAUAGCAAUAUUACGAGAG |  | -0.556 ± 0.26 |
| UUAUAGCAAUAUUACGAGGU |  | -2.14 ± 0.37 |
| UUAUAGCAAUAUUACGAUAG | -0.194 ± 0.16 | -0.527 ± 0.16 |
| UUAUAGCAAUAUUACGCACG | -1.18 ± 0.15 | -0.14 ± 0.18 |
| UUAUAGCAAUAUUACGCGAU | -2.8 ± 0.37 | -2.23 ± 0.46 |
| UUAUAGCAAUAUUACGCGCC | -1.96 ± 0.23 | -2.14 ± 0.3 |

| Sequence | self-splicing fitness (ln) (30 °C) | self-splicing fitness (ln) (37 °C) |
| --- | --- | --- |
| UUAUAGCAAUAUUACGCUCA | -0.877 ± 0.38 | -1.09 ± 0.42 |
| UUAUAGCAAUAUUACGCUCG | 0.392 ± 0.25 | 0.206 ± 0.22 |
| UUAUAGCAAUAUUACGGAAG | -2.21 ± 0.26 | -1.77 ± 0.26 |
| UUAUAGCAAUAUUACGGAUG | -2.85 ± 0.16 | -1.09 ± 0.15 |
| UUAUAGCAAUAUUACGGCAA | -0.0783 ± 0.11 | -0.348 ± 0.1 |
| UUAUAGCAAUAUUACGGCUG | 0.0456 ± 0.07 | 0.442 ± 0.1 |
| UUAUAGCAAUAUUACGUACG | -1.03 ± 0.12 | -0.0555 ± 0.17 |
| UUAUAGCAAUAUUACGUAGG | -1.75 ± 0.14 | -0.198 ± 0.17 |
| UUAUAGCAAUAUUACGUAGU | -3.03 ± 0.24 | -2.71 ± 0.4 |
| UUAUAGCAAUAUUACGUCCA | -1.54 ± 0.26 | -0.846 ± 0.29 |
| UUAUAGCAAUAUUACGUCCU | -3.3 ± 0.34 | -1.78 ± 0.27 |
| UUAUAGCAAUAUUACGUCUC | -3.25 ± 0.33 | -2.13 ± 0.3 |
| UUAUAGCAAUAUUACGUGAA | -1.91 ± 0.18 | -0.849 ± 0.17 |
| UUAUAGCAAUAUUACGUGGG | -3.41 ± 0.26 | -2.15 ± 0.23 |
| UUCAAGCAAUAUUACGAAAA | -0.341 ± 0.15 | -0.222 ± 0.18 |
| UUCAAGCAAUAUUACGAAGA | -2.03 ± 0.19 | -1.26 ± 0.19 |
| UUCAAGCAAUAUUACGACCU | -2.33 ± 0.27 | -0.916 ± 0.18 |
| UUCAAGCAAUAUUACGACUA | 0.15 ± 0.12 | 0.446 ± 0.14 |
| UUCAAGCAAUAUUACGAGGA | -2.22 ± 0.14 | -1.43 ± 0.13 |
| UUCAAGCAAUAUUACGCAAA | -1.96 ± 0.16 | -0.991 ± 0.15 |
| UUCAAGCAAUAUUACGCACU | 0.0955 ± 0.12 | -0.66 ± 0.14 |
| UUCAAGCAAUAUUACGCAGC | -1.85 ± 0.16 | -2.72 ± 0.31 |
| UUCAAGCAAUAUUACGCAGU | -3.44 ± 0.27 | -3.62 ± 0.42 |
| UUCAAGCAAUAUUACGCAUA | -1.24 ± 0.096 | -0.0175 ± 0.1 |
| UUCAAGCAAUAUUACGCCCA | -0.837 ± 0.24 | 0.3 ± 0.21 |

| Sequence | self-splicing fitness (ln) (30 °C) | self-splicing fitness (ln) (37 °C) |
| --- | --- | --- |
| UUCAAGCAAUAUUACGCCGU | -2.25 ± 0.2 | -1.46 ± 0.19 |
| UUCAAGCAAUAUUACGCCUC | -1.59 ± 0.14 | -1.34 ± 0.16 |
| UUCAAGCAAUAUUACGGAAA | -1.83 ± 0.11 | -1.12 ± 0.1 |
| UUCAAGCAAUAUUACGGAAC | -3 ± 0.27 |  |
| UUCAAGCAAUAUUACGGAGU | -3.82 ± 0.27 | -2.56 ± 0.23 |
| UUCAAGCAAUAUUACGGCAU | -1.71 ± 0.065 | -0.546 ± 0.075 |
| UUCAAGCAAUAUUACGGCUG | -2.62 ± 0.15 | -1.52 ± 0.2 |
| UUCAAGCAAUAUUACGGGAC | -2.58 ± 0.16 | -2.43 ± 0.28 |
| UUCAAGCAAUAUUACGGUAA | -0.679 ± 0.097 | 0.0151 ± 0.1 |
| UUCAAGCAAUAUUACGUCUA | -0.495 ± 0.09 | 0.538 ± 0.081 |
| UUCAAGCAAUAUUACGUGUC | -2.84 ± 0.11 | -2.45 ± 0.14 |
| UUCCAGCAAUAUUACGACUU | -1.5 ± 0.18 | -0.653 ± 0.2 |
| UUCCAGCAAUAUUACGAGUA | -1.12 ± 0.07 | 0.0282 ± 0.078 |
| UUCCAGCAAUAUUACGCACC | -2.48 ± 0.3 | -1.55 ± 0.26 |
| UUCCAGCAAUAUUACGCCAC |  | -1.86 ± 0.34 |
| UUCCAGCAAUAUUACGGACU | -2.17 ± 0.14 | -0.74 ± 0.15 |
| UUCCAGCAAUAUUACGGCCU | -4.05 ± 0.42 | -1.58 ± 0.17 |
| UUCCAGCAAUAUUACGGGGU | -3.02 ± 0.12 | -2.81 ± 0.17 |
| UUCCAGCAAUAUUACGGUAU | -2.13 ± 0.11 | -1.5 ± 0.12 |
| UUCCAGCAAUAUUACGGUCA | -0.23 ± 0.084 | 0.239 ± 0.1 |
| UUCCAGCAAUAUUACGGUCG | -0.395 ± 0.081 | 0.623 ± 0.11 |
| UUCCAGCAAUAUUACGGUGG | -3.89 ± 0.27 | -3.15 ± 0.24 |
